This test deals with T1, maltose-binding protein (MBP)-KIN10 (Arabidopsis thaliana, UniProt Q38997-2 1-512).
T1 construct: KIN10, catalytic alpha subunit of SnRK1, Arabidopsis thaliana; full-length cDNA without stop codon in pMAL2CGW (N-MBP); also called KIN10-MBP; source: bacteria (Escherichia coli), purified (amylose resin); not shown: MBP, N-terminal, kept
T1 sequence (looked up): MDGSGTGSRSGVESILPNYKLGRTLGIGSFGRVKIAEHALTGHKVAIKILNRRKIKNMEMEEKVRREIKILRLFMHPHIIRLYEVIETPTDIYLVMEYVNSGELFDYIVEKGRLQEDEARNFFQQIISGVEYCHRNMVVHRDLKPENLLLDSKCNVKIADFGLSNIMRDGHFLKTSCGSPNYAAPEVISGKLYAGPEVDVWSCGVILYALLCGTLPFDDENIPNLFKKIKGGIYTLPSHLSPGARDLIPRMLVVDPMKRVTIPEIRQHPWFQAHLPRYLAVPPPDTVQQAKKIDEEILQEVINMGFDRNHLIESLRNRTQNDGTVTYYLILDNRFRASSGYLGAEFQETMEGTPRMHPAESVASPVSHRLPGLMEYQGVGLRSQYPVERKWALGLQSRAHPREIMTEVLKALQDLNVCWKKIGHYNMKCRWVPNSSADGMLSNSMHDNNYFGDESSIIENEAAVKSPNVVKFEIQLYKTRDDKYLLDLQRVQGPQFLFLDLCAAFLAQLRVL
The test is described as follows: pull-down; 1 µg GST-SPCH bound to glutathione agarose beads incubated with 1 µg MBP or MBP-KIN10; 20 mM Tris-HCl pH 7.5, 100 mM NaCl, 1 mM EDTA, 4 °C, 1 h; washed with 300 mM NaCl, 0.1% Nonidet P-40; blot with anti-MBP. The following applies: both partners purified.

B1: glutathione S-transferase (GST)-SPCH (natural protein, Arabidopsis thaliana, UniProt Q700C7 1-364, looked up)
chain: MQEIIPDFLEECEFVDTSLAGDDLFAILESLEGAGEISPTAASTPKDGTTSSKELVKDQDYENSSPKRKKQRLETRKEEDEEEEDGDGEAEEDNKQDGQQKMSHVTVERNRRKQMNEHLTVLRSLMPCFYVKRGDQASIIGGVVEYISELQQVLQSLEAKKQRKTYAEVLSPRVVPSPRPSPPVLSPRKPPLSPRINHHQIHHHLLLPPISPRTPQPTSPYRAIPPQLPLIPQPPLRSYSSLASCSSLGDPPPYSPASSSSSPSVSSNHESSVINELVANSKSALADVEVKFSGANVLLKTVSHKIPGQVMKIIAALEDLALEILQVNINTVDETMLNSFTIKIGIECQLSAEELAQQIQQTFC
notes: full-length cDNA without stop codon in pDEST15 (N-GST); source: bacteria, purified (glutathione beads); not shown: GST, N-terminal, kept
B1: the binding result was “binds”.

The values above are taken from publication PMC7447634, “KIN10 promotes stomatal development through stabilization of the [sequence] transcription factor” (Nature Communications, 2020).
